Laboratory results published in patent KR20230066722A (dated 2023).

Biological target: S275F RSV F protein (Synagis-resistant RSV antigen) (respiratory syncytial virus, UniProt P03420 26-524)
Experiment: ratio of the ELISA Kd values, reference 11L

B1: RSV Protein-1A12 Ab (antibody, V domains shown)
VH: EVQLVESGGGLVQPGGSLRLSCAASGFTFTSSWMSWVRQAPGKGLEWVSEIDGYNGSTYYADSVKGRFTISRDNSKNTLYLQMNSLRAEDTAVYYCARTVPWWGMDYWGQGTLVTVSS
VL: DIQMTQSPSSLSASVGDRVTITCRASQNISNYLAWYQQKPGKAPKLLIYLASSLESGVPSRFSGSGSGTDFTLTISSLQPEDFATYYCQQANSPPRTFGQGTKVEIK
notes: The ELISA detected the antibody with anti-human IgG Fc-HRP, so a human Fc is implied; also called 항체 1A12; 1A12 항체
With B1 the “fold higher affinity for S275F than for 11L” value was ~15 배 (fold).
